Substitutions are numbered along the chain they refer to.
T1: CD22-His tag (CD22 extracellular domain; Acrobiosystems Inc.) (UniProt P20273 20-687, limits assumed)
T1 construct: extracellular domain; Bought reagent coated at 100 ng/well; also called CD22 peptide; not shown: His tag
T1 sequence (looked up): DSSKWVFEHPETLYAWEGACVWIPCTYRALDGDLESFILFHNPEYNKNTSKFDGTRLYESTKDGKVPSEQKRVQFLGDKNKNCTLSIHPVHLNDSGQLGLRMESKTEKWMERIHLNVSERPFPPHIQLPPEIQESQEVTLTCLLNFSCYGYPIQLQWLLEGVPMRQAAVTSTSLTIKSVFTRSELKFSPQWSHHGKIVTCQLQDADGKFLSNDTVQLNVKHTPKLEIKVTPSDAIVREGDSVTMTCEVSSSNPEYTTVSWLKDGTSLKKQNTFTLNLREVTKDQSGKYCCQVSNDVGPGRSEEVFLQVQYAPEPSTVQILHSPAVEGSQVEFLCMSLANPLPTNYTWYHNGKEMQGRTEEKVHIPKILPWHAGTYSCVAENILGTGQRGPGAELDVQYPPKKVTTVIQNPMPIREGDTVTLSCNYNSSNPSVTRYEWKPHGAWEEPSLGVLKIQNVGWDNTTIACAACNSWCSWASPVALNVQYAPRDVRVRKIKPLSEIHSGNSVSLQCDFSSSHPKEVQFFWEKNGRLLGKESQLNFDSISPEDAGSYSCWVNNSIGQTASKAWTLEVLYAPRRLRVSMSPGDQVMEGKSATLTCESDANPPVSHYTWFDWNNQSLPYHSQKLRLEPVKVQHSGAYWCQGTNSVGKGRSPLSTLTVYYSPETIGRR

B1: 6B3 antibody (antibody, V domains shown)
VH: EVQLQQSGPELVKPGASVKISCKASGYTFTDYNMHWVKQSHGKSLEWIGYIYPYNGGTGYKQKFKSKATLTVDNSSSTAYMELRSLTSEDSAVYYCARLYYYGRTSYWGQGTTLTVSS
VL: DIVMTQSQKFMSTSVGDRVSVTCKASQNVGTYVAWYQQKPGQSPKALIYSASYRYSGVPDRFTGSGSGTDFTLTISIVQSEDLAEYFCHQYDSYPYTFGGGTKLEIK
notes: Monoclonal antibody from a hybridoma, detected in FACS with goat anti-mouse IgG
B2: 1C2 antibody (antibody, V domains shown)
VH: QVQLQQPGAELVRPGASVKLSCKASGYTFTSYWMNWVKQRPGQGLEWIGMIDPSDSETHYNQMFKDKATLTVDKSSSTAYMQLSSLTSEDSAVYYCARWGNYDYDVWAMDYWGQGTSVTVSS
VL: DVLMTQTPLSLPVSLGDQASISCRSSQNIVHLNGNTFLEWFLQKPGQSPKLLIYKVSNRFSGVPDRFSGSGSGTDFTLKISRVEAEDLGVYYCFQGSHVPYTFGGGTKLEIK
notes: Monoclonal antibody from a hybridoma (fusion with mouse myeloma cells), detected in FACS with goat anti-mouse IgG
B3: 9E9 antibody (antibody, V domains shown)
VH: EVQLEESGAELVRPGSSVKISCKASGYAFSIYWMNWVKQRPGQGLEWIGQIYPGDGDTNYNGKFKGKATLTADKSSSTAYMQLSSLTSEDSAVYFCARRGITPWFAYWGQGTLVTVSA
VL: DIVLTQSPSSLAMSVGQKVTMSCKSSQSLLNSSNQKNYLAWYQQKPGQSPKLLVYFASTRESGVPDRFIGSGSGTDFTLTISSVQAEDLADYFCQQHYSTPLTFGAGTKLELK
notes: as for B1
B4: 2A9 antibody (antibody, V domains shown)
VH: EVQLEESGAELVKPGASVKMSCKAFGYTFTTYPIEWMKQNHGKSLEWIGNFHPYNDDTKYNEKFKGKAKLTVEKSSSTVYLELSRLTSDDSAVYYCARGDYYVSSWYFDVWGAGTTVTVSS
VL: B1 VL with Y32N, I77N, H89Q, D92N, Y96L, G100S
notes: as for B1
B5: 2G1 antibody (antibody, V domains shown)
VH: EVQLQESGPGLVAPSQSLSITCTVSGFSLTSYDISWIRQPPGKGLEWLGVIWTGGGTNYNSAFMSRLSISKDNSKSQVFLKMNSLQTDDTAIYYCVPHYYGYAMDYWGQGTSVTVSS
VL: DIVLTQSPSSLSASLGGKVTITCKASQDINKYIAWYQHKPGKGPRLLIHYTSTLQPGIPSRFSGSGSGRDYSFSISNLEPEDIATYYCLQYDNLLTFGAGTKLELK
notes: as for B1

biological target: T1, CD22-His tag (CD22 extracellular …); test: ELISA, CD22-His tag coated at 100 ng/well, primary antibody 0.4 ug/ml
Procedure: 1C2, 9E9, 2A9, 2G1 and 6B3 antibodies were treated in each well, and then reacted at room temperature for 2 hours, and then washed 3 times with 1 X PBST. Secondary antibody ([…], 1:10,000) was treated and reacted at room temperature for 30 minutes, washed 3 times with 1 X PBST, and then treated with TMB for color development and reacted at room temperature for 5 minutes. Finally, the reaction was terminated by treatment with a stop solution of 1N H₂SO₄, and then the absorbance was measured at 450 nm.

Binder	OD450 measurements
B1	1.79 absorbance at 450 nm
B2	2.43 absorbance at 450 nm
B3	1.76 absorbance at 450 nm
B4	2.93 absorbance at 450 nm
B5	2.54 absorbance at 450 nm

Reference: patent publication US20230212286A1 (INNOBATION BIO, published 2023)
